Target: TolAIII, C-terminal domain of E. coli TolA (residues 302-421) with N-terminal His6 tag (E. coli) (UniProt P19934)
Test: SPR

UniProt P19934, sequence (P19934 302-421): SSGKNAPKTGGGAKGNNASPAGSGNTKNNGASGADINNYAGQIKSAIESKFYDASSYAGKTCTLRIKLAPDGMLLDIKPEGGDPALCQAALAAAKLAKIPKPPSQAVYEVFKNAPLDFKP

Kd: 1.34 µM
Substance: TA53-107, residues 53-107 of the translocation domain of colicin A (from UniProt P04480 53-107) (domain or fragment)
